Measured values published in PMC9482650, “Quantitative fragmentomics allow affinity mapping of interactomes” (Nature Communications, 2022).

T1: APBA1_2, Q02410
T1 sequence (Q02410 742-832, limits assumed, looked up): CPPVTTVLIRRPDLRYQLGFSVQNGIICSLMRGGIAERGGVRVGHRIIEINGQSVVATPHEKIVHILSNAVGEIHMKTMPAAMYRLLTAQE

T2: SNTG1, Q9NSN8
T2 sequence (Q9NSN8 52-150, limits assumed, looked up): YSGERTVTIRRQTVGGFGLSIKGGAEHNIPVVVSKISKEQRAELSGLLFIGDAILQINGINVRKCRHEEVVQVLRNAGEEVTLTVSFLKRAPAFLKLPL

T3: NHERF3_3, Q5T2W1
T3 sequence (Q5T2W1 238-333, limits assumed, looked up): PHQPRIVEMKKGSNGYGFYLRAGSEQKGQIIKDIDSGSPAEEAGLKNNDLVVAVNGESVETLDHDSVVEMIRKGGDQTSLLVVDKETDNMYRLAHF

T4: NHERF3_1, Q5T2W1
T4 sequence (Q5T2W1 4-100, limits assumed, looked up): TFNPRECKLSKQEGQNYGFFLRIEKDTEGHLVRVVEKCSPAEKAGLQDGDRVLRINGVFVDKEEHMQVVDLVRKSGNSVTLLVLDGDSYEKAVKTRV

T5: LRRC7, Q96NW7
T5 sequence (Q96NW7 1440-1537, limits assumed, looked up): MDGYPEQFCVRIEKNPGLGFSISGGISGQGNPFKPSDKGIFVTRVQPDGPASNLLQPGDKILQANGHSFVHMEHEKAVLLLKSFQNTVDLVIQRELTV

T6: PARD3B_1, Q8TEW8
T6 sequence (Q8TEW8 196-299, limits assumed, looked up): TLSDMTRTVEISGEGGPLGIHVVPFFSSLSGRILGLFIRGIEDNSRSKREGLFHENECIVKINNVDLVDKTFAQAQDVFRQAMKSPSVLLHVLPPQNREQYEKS

T7: SNTG2, Q9NY99
T7 sequence (Q9NY99 68-166, limits assumed, looked up): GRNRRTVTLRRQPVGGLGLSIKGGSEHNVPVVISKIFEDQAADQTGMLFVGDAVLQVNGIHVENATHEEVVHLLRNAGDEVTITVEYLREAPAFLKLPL

T8: CARD11, Q9BXL7
T8 sequence (Q9BXL7 662-765, limits assumed, looked up): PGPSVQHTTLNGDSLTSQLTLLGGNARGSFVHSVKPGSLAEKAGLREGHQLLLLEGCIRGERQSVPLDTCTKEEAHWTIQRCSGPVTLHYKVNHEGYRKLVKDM

T9: MPP6, Q9NZW5
T9 sequence (Q9NZW5 125-219, limits assumed, looked up): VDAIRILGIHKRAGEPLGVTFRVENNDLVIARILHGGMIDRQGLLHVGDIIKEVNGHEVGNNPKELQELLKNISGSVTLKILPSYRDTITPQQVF


Assays:
Assay in all cases: holdup assay
Set-up in all cases: key: below the threshold = too weak to quantify, mostly under pKd 3.1 to 4
Settings in all cases: plain residues with an end cap or a label only (N-terminal biotin on a linker: ado-ado)
[1] = molecular target: IL16_1, Q14005
[2] = molecular target: SCRIB_3, Q14160
[3] = molecular target: T1, APBA1_2, Q02410
[4] = molecular target: T2, SNTG1, Q9NSN8
[5] = molecular target: DLG1_3, Q12959
[6] = molecular target: SCRIB_1, Q14160
[7] = molecular target: PTPN3, P26045
[8] = molecular target: T3, NHERF3_3, Q5T2W1
[9] = molecular target: DLG5_1, Q8TDM6
[10] = molecular target: PICK1, Q9NRD5
[11] = molecular target: LDB3, O75112
[12] = molecular target: T4, NHERF3_1, Q5T2W1
[13] = molecular target: T5, LRRC7, Q96NW7
[14] = molecular target: LNX1_1, Q8TBB1
[15] = molecular target: T6, PARD3B_1, Q8TEW8
[16] = molecular target: AHNAK1, Q09666
[17] = molecular target: LIMK2, P53671
[18] = molecular target: DLG2_2, Q15700
[19] = molecular target: GRASP, Q7Z6J2
[20] = molecular target: T7, SNTG2, Q9NY99
[21] = molecular target: T8, CARD11, Q9BXL7
[22] = molecular target: GRIP2_6, Q9C0E4
[23] = molecular target: Inadl_3, Q8NI35
[24] = molecular target: T9, MPP6, Q9NZW5
[25] = molecular target: IL16_4, Q14005
[26] = molecular target: MAGI2_3, Q86UL8
[27] = molecular target: TJP1_3, Q07157
[28] = molecular target: NHERF4_4, Q86UT5
Chain of NHERF4_4, Q86UT5 (Q86UT5 464-550): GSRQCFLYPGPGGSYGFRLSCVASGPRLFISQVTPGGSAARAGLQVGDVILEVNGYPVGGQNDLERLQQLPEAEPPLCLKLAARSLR

Chain of LIMK2, P53671 (P53671 143-248): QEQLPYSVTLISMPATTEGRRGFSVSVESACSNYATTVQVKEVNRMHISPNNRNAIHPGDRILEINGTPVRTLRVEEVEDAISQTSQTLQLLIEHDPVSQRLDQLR
Chain of PICK1, Q9NRD5 (Q9NRD5 17-115): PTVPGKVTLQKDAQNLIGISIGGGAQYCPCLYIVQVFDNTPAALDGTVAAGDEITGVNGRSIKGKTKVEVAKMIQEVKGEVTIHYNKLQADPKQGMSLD
Chain of LDB3, O75112 (O75112 1-94): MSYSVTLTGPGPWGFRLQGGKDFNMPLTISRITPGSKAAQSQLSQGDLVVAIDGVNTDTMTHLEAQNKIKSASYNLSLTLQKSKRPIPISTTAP
Chain of DLG2_2, Q15700 (Q15700 189-283): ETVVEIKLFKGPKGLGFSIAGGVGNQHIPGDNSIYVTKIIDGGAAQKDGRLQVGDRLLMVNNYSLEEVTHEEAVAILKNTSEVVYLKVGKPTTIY
Chain of LNX1_1, Q8TBB1 (Q8TBB1 261-371): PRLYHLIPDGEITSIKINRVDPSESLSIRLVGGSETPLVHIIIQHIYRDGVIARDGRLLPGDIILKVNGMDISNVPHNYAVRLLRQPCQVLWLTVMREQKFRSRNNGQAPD
Chain of DLG5_1, Q8TDM6 (Q8TDM6 617-713): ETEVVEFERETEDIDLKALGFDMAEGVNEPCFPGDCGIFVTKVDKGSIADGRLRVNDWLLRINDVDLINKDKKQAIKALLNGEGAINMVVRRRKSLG
Chain of SCRIB_3, Q14160 (Q14160 999-1103): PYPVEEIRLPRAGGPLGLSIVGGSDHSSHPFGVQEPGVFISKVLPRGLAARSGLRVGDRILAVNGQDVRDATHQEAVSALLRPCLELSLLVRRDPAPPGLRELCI
Chain of GRASP, Q7Z6J2 (Q7Z6J2 96-193): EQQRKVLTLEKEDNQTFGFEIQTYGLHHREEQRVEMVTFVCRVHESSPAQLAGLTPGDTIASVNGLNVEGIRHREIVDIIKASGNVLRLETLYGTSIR
Chain of MAGI2_3, Q86UL8 (Q86UL8 600-682): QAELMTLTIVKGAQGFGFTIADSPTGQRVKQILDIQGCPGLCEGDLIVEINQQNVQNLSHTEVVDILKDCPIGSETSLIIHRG
Chain of SCRIB_1, Q14160 (Q14160 718-814): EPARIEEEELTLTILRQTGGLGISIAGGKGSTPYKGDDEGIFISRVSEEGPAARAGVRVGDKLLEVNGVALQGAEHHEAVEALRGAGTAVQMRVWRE
Chain of Inadl_3, Q8NI35 (Q8NI35 359-469): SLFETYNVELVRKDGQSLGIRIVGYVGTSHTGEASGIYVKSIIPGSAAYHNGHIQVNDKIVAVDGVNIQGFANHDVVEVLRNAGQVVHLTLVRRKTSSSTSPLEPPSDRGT
Chain of PTPN3, P26045 (P26045 505-587): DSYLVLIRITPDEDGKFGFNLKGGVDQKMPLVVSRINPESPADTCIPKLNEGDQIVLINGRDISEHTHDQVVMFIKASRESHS
Chain of GRIP2_6, Q9C0E4 (Q9C0E4 648-740): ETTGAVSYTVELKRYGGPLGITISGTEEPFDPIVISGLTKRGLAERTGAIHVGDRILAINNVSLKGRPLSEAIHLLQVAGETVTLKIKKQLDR
Chain of IL16_1, Q14005 (Q14005 210-306): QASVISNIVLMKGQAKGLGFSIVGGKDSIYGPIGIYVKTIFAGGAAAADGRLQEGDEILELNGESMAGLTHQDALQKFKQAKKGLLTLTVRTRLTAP
Chain of DLG1_3, Q12959 (Q12959 457-571): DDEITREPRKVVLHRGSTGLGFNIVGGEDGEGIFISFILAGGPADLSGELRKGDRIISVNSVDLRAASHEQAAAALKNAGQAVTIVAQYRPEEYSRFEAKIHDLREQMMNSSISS
Chain of AHNAK1, Q09666 (Q09666 4-100): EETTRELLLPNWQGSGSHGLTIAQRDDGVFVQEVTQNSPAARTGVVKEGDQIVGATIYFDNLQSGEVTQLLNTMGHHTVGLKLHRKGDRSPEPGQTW
Chain of IL16_4, Q14005 (Q14005 1229-1329): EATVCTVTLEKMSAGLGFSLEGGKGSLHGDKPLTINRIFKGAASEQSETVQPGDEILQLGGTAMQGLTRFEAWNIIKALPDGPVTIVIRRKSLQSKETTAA
Chain of TJP1_3, Q07157 (Q07157 416-512): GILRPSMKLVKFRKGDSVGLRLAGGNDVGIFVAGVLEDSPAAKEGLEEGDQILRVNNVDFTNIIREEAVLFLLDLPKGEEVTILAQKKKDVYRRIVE

pKd [1] | pKd [2] | pKd [3] | pKd [4] | pKd [5] | pKd [6] | pKd [7] | pKd [8] | pKd [9] | pKd [10] | pKd [11] | pKd [12] | pKd [13] | pKd [14] | pKd [15] | pKd [16] | pKd [17] | pKd [18] | pKd [19] | pKd [20] | Binder | other results
below the threshold | 4.02 | below the threshold | below the threshold | below the threshold | below the threshold | 4.48 | below the threshold | below the threshold | 4.12 | below the threshold | 4.43 | below the threshold | 3.59 | 3.72 | below the threshold | below the threshold | below the threshold | 3.63 | below the threshold | SSSVNVSSNL [CXCR1, P25024] | pKd [21]: below the threshold; pKd [22]: below the threshold; pKd [23]: below the threshold; pKd [24]: below the threshold; pKd [25]: below the threshold; pKd [26]: 3.5; pKd [27]: below the threshold; pKd [28]: below the threshold
below the threshold | 4.02 | 3.62 | below the threshold | below the threshold | 4.14 | below the threshold | below the threshold | below the threshold | below the threshold | below the threshold | 5.03 | below the threshold | below the threshold | 4.49 | below the threshold | below the threshold | below the threshold | 4.8 | below the threshold | NNMAFETTHF [SLC5A12, Q1EHB4] | pKd [21]: below the threshold; pKd [22]: below the threshold; pKd [23]: below the threshold; pKd [24]: below the threshold; pKd [25]: below the threshold; pKd [26]: below the threshold; pKd [27]: below the threshold; pKd [28]: below the threshold
below the threshold | 4.64 | below the threshold | below the threshold | below the threshold | 3.62 | 4.92 | below the threshold | below the threshold | 4.22 | below the threshold | 5.63 | below the threshold | 3.72 | 4.43 | below the threshold | below the threshold | below the threshold | 3.72 | 3.95 | LLQEEWETVM [PTH1R, Q03431] | pKd [21]: below the threshold; pKd [22]: below the threshold; pKd [23]: 4.7; pKd [24]: below the threshold; pKd [25]: 3.93; pKd [26]: 3.59; pKd [27]: below the threshold; pKd [28]: below the threshold

Continued, binder first:

Binder | pKd [1] | pKd [2] | pKd [3] | pKd [4] | pKd [5] | pKd [6] | pKd [7] | pKd [8] | pKd [9] | pKd [10] | pKd [11] | pKd [12] | pKd [13] | pKd [14] | pKd [15] | pKd [16] | pKd [17] | pKd [18] | pKd [19] | pKd [20] | other results
KKTPVSRSHL [SLC22A3, O75751] | below the threshold | below the threshold | 3.77 | below the threshold | below the threshold | 3.91 | below the threshold | below the threshold | below the threshold | below the threshold | below the threshold | 4.39 | below the threshold | below the threshold | below the threshold | below the threshold | below the threshold | below the threshold | 4.38 | 3.48 | pKd [21]: below the threshold; pKd [22]: below the threshold; pKd [23]: below the threshold; pKd [24]: below the threshold; pKd [25]: below the threshold; pKd [26]: below the threshold; pKd [27]: below the threshold; pKd [28]: below the threshold
LPPPESESKV [KCNJ9, Q92806] | 4.11 | below the threshold | below the threshold | 4.31 | below the threshold | below the threshold | 4.4 | below the threshold | below the threshold | 4 | below the threshold | 4.15 | below the threshold | below the threshold | below the threshold | below the threshold | below the threshold | below the threshold | below the threshold | 3.74 | pKd [21]: 3.73; pKd [22]: below the threshold; pKd [23]: below the threshold; pKd [24]: below the threshold; pKd [25]: below the threshold; pKd [26]: 3.64; pKd [27]: below the threshold; pKd [28]: below the threshold
